{"source": "paper PMC10379010", "about": "“Short Peptides of Innate Immunity Protein Tag7 (PGLYRP1) Selectively Induce Inhibition or Activation of Tumor Cell Death via TNF Receptor” (International Journal of Molecular Sciences, 2023)", "origin": "cited, not measured here", "molecules": {"B1": {"name": "Tag7: innate immunity protein Tag7 (PGLYRP1), ligand of the TNFR1 receptor; recombinant (protein)", "chain": "QETEDPACCSPIVPRNEWKALASECAQHLSLPLRYVVVSHTAGSSCNTPASCQQQARNVQHYHMKTLGWCDVGYNFLIGEDGLVYEGRGWNFTGAHSGHLWNPMSIGISFMGNYMDRVPTPQAIRAAQGLLACGVAQGALRSNYVLKGHRDVQRTLSPGNQLYHLIQNWPHYRSP"}}, "tested_on": "TNFR1", "design": "method as in 3 sources, ref [14] = [14]; PMID 32093269; doi:10.3390/cells9020488; 14. Romanova E.A. Sharapova T.N. Telegin G.B. Minakov A.N. Chernov A.S. Ivanova O.K. Bychkov M.L. Sashchenko L.P. Yashin D.V. A 12-mer Peptide of Tag7 (PGLYRP1) Forms a Cytotoxic Complex with Hsp70 an ||| ref [15] = [15]; PMID 34163464; doi:10.3389/fimmu.2021.622471; 15. Telegin G.B. Chernov A.S. Kazakov V.A. Romanova E.A. Sharapova T.N. Yashin D.V. Gabibov A.G. Sashchenko L.P. A 8-mer Peptide of PGLYRP1/Tag7 Innate Immunity Protein Binds to TNFR1 Receptor and Inh ||| ref [10],[11] = [10]; PMID 26183779; doi:10.1074/jbc.M115.639732; 10. Yashin D.V. Ivanova O.K. Soshnikova N.V. Sheludchenkov A.A. Romanova E.A. Dukhanina E.A. Tonevitsky A.G. Gnuchev N.V. Gabibov A.G. Georgiev G.P. Tag7 (PGLYRP1) in Complex with Hsp70 Induces Altern || [11]; PMID 32636466; doi:10.1038/s41598-020-68088-x; 11. Sharapova T.N. Romanova E.A. Soshnikova N.V. Belogurov A.A. Jr. Lomakin Y.A. Sashchenko L.P. Yashin D.V. Autoantibodies from SLE patients induce programmed cell death in murine fibroblast cells th", "conditions": "death under action of a specific ligand of TNFR1 or DNA-hydrolyzing autoantibodies; ref [10],[11]", "data": [{"molecule": "B1", "values": [{"measurement": "Inhibition of death of tumor cells, Tag7", "value": "inhibits the death of tumor cells"}]}]}
